The source of these data is paper PMC6933062 (Annals of Laboratory Medicine, 2019).

This test deals with T1, biotinylated synthetic peptide containing the PDZ-binding motif of cadherin-related 23 ….
T1 peptide: {Biotin-Ttds}-VIMESPLEITEL
Briefly: BLI. (Biolayer interferometry detects binding as a change in optical thickness at a sensor tip.)

Positions count from the first letter of the chain named. Ends that are not written are not given here. * marks the point of attachment. Biotin = O=C1N[C@H]2[C@H](CS[C@H]2CCCCC(=O)*)N1; Ttds = NCCCOCCOCCOCCCNC(=O)CCC(=O)*

B1: wild-type PDZ2 domain of harmonin (domain or fragment)
chain: GGLGSPGNRTTKEKKVFISLVGSRGLGCSISSGPIQKPGIFVSHVKPGSLSAEVGLETGDQIVEVNGIDFTNLDHKEAVNVLKSSRSLTISIVAGAGRE
As a reminder, the Kd is the constant that tells how readily two partners part at equilibrium. Read a low Kd as tighter binding. Regarding B1, the Kd worked out at 37.6 ± 4.1 µM.

B2: variant PDZ2 domain of harmonin carrying p.Gly223Cys (domain or fragment)
chain: B1 chain with G27C
For the molecule B2, the Kd worked out at 621 ± 88 µM.
